Test results taken from patent US7422884B2, “Feedback-resistant mevalonate kinases” (DSM IP Assetts B.V., priority 2003, dated 2008).

Tests used:
[1] = system: His6-tagged Paracoccus zeaxanthinifaciens mevalonate kinase; experiment: Feedback inhibition of mevalonate kinase by downstream products of the pathway; format: biochemical; settings: 138 μM of the inhibitor; wild-type His6-tagged enzyme
Procedure: (§1) Enzymatic assays for measuring mevalonate kinase activity have been described, e.g., by Popák (Meth. Enzymol. 15, 393-, 1969), Gibson et al. (Enzyme 41, 47-55, 1989), Hinson et al. (J. Lipid Res. 38, 2216-2223, 1997), Schulte et al. (Anal. Biochem. 269, 245-254, 1999), or Cho et al. (J. Biol. Chem. 276, 12573-12578, 2001). For preparing mevalonate as substrate, 130 mg of DL-mevalonate lactone (FLUKA Chemie AG, Buchs, Switzerland) were dissolved in 5.5 ml of 0.2 M KOH and incubated for 15 min at 50° C. The solution was then adjusted to pH 7.0 by addition of 0.1 M HCl at room temperature (RT). Except if stated otherwise (see Example 3), the assay mixture consists of 100 mM K2HPO4/KH2PO4 (pH 7.0), 1 mM ATP, 2 mM MgCl2, 1 mM mevalonate, 0.5 mM phosphoenolpyruvate (PEP), 0.32 mM NADH, 20 U/ml pyruvate kinase and 27 U/ml lactate dehydrogenase (Sigma-Aldrich, St. Louis, Mo., USA). FPP, GGPP, IPP, DMAPP and GPP tested as inhibitors in the assay mixtures (at concentrations of 0-100 μM) were all purchased from Sigma. Upon addition of purified (His6-tagged) mevalonate kinase, enzymatic reaction reflected by consumption of NADH was followed by photometric measurement at 340 nm. One unit (1 U) of mevalonate kinase activity catalyzes the phosphorylation of 1 μmol of mevalonate per min.
(§2) Mevalonate was prepared as described in Example 2. The assay mixture consists of 100 mM K2HPO4/KH2PO4 (pH 7.0), 1 mM ATP, 1 mM mevalonate, 2 mM MgCl2, 0.5 mM phosphoenolpyruvate (PEP), 0.32 mM NADH, 20 U/ml pyruvate kinase and 27 U/ml lactate dehydrogenase (Sigma-Aldrich, St. Louis, Mo., USA). FPP, GGPP, IPP, DMAPP and GPP tested as inhibitors in the assay mixtures were all purchased from Sigma. 92 μM FPP or 17.6 μM GGPP were used for inhibition assays performed with the mevalonate kinase mutants. For the comparison of inhibition by FPP, GGPP, IPP, DMAPP and GPP, 138 μM of these intermediates were added (Example 9). Upon addition of purified (HiS6-tagged) mevalonate kinase, enzymatic reaction reflected by consumption of NADH was followed by photometric measurement at 340 nm.
Different mevalonate kinases were previously reported to be sensitive to feedback inhibition by the following downstream products of the mevalonate pathway: IPP, DMAPP, GPP, FPP, GGPP, phytyl-PP, farnesol, dolichol phosphate.

[2] = system: Paracoccus zeaxanthinifaciens mevalonate kinase; experiment: Feedback resistance of mevalonate kinase mutants to FPP or GGPP; format: biochemical; settings: feedback inhibitor FPP, 92 μM; relative to wild-type
Procedure: “Feedback resistance” shall mean any increase in resistance to “feedback inhibition” (as defined above). Feedback resistance can be analyzed in different ways known to those skilled in the art. An appropriate approach shall be described here shortly: mevalonate kinase activity is measured in an activity assay similar to the one described in Example 2 at non-saturating concentrations of ATP (or of another phosphate donor) and mevalonate (or mevalonate analogue), i.e., at ATP (or phosphate donor) and mevalonate (or mevalonate analogue) concentrations around which the reaction rate is sensitive to changes of these substrate concentrations, e.g. at concentrations around the respective Km values of the enzyme under investigation for these substrates. The activities of both wild-type mevalonate kinase and of a variant/mutant of this enzyme are measured under otherwise identical conditions both in the absence and presence of a relevant concentration of a feedback inhibitor, i.e., at a concentration of feedback inhibitor affording significant inhibition of the wild-type mevalonate kinase. […] Feedback resistance (%) is calculated as follows: if a and b are the measured mevalonate kinase activities of the wild-type enzyme in the absence and presence, respectively, of the feedback inhibitor (e.g., FPP), and if c and d are the measured mevalonate kinase activities of the mutant enzyme in the absence and presence, respectively, of the same feedback inhibitor, then % feedback resistance is: % resistance=100·((d/c)−(b/a))/(1−(b/a)) […]
Feedback resistance (%) is calculated as follows: if a and b are the measured mevalonate kinase activities of the wild-type enzyme in the absence and presence, respectively, of the feedback inhibitor (in this case, FPP), and if c and d are the measured mevalonate kinase activities of the mutant enzyme in the absence and presence, respectively, of the same feedback inhibitor, then % feedback resistance is: % resistance=100·((d/c)−(b/a))/(1−(b/a))

[3] = system: Paracoccus zeaxanthinifaciens mevalonate kinase; experiment: Mevalonate kinase activity assay (NADH-coupled photometric assay, specific activity of mutants); format: biochemical; settings: purified His6-tagged enzyme, 1 mM ATP, 1 mM mevalonate, pH 7.0
Procedure: as §1, §2

[4] = pH 8

Molecule | Inhibition of mevalonate kinase activity [1] | Feedback resistance (%) [2] | Specific activity (% of wild-type) [3] | Solubility / tendency to aggregate [4]
CC(C)=CCOP(=O)(O)OP(=O)(O)O [DMAPP, 3,3-dimethylallyl diphosphate] | 14.7% |  |  | 
CC(C)=CCC/C(C)=C/CC/C(C)=C/CC/C(C)=C/COP(=O)(O)OP(=O)(O)O [GGPP, geranylgeranyl diphosphate] | 98% |  |  | 
CC(C)=CCC/C(C)=C/COP(=O)(O)OP(=O)(O)O [GPP, geranyl diphosphate] | 18.6% |  |  | 
C=C(C)CCOP(=O)(O)OP(=O)(O)O [IPP, isopentenyl diphosphate] | 16.3% |  |  | 
WT: wild-type His6-tagged mevalonate kinase of Paracoccus zeaxanthinifaciens, SEQ ID NO:15 (protein, His6 tag; His6-Paracoccus zeaxanthinifaciens) MRGSHHHHHHSTGRPEAGAHAPGKLILSGEHSVLYGAPALAMAIARYTEVWFTPLGIGEGIRTTFANLSGGATYSLKLLSGFKSRLDRRFEQFLNGDLKVHKVLTHPDDLAVYALASLLHDKPPGTAAMPGIGAMHHLPRPGELGSRTELPIGAGMGSSAAIVAATTVLFETLLDRPKTPEQRFDRVRFCERLKHGKAGPIDAASVVRGGLVRVGGNGPGSISSFDLPEDHDLVAGRGWYWVLHGRPVSGTGECVSAVAAAHGRDAALWDAFAVCTRALEAALLSGGSPDAAITENQRLLERIGVVPAATQALVAQIEEAGGAAKICGAGSVRGDHGGAVLVRIDDAQAMASVMARHPDLDWAPLRMSRTGAAPGPAPRAQPLPGQG |  | 0% | 100 % of wild-type | pronounced tendency to aggregate/precipitate
G47D (protein, listed as Paracoccus zeaxanthinifaciens) MSTGRPEAGAHAPGKLILSGEHSVLYGAPALAMAIARYTEVWFTPLDIGEGIRTTFANLSGGATYSLKLLSGFKSRLDRRFEQFLNGDLKVHKVLTHPDDLAVYALASLLHDKPPGTAAMPGIGAMHHLPRPGELGSRTELPIGAGMGSSAAIVAATTVLFETLLDRPKTPEQRFDRVRFCERLKHGKAGPIDAASVVRGGLVRVGGNGPGSISSFDLPEDHDLVAGRGWYWVLHGRPVSGTGECVSAVAAAHGRDAALWDAFAVCTRALEAALLSGGSPDAAITENQRLLERIGVVPAATQALVAQIEEAGGAAKICGAGSVRGDHGGAVLVRIDDAQAMASVMARHPDLDWAPLRMSRTGAAPGPAPRAQPLPGQG |  | 32% | 121 % of wild-type | 
K93E (protein, listed as Paracoccus zeaxanthinifaciens) MSTGRPEAGAHAPGKLILSGEHSVLYGAPALAMAIARYTEVWFTPLGIGEGIRTTFANLSGGATYSLKLLSGFKSRLDRRFEQFLNGDLKVHEVLTHPDDLAVYALASLLHDKPPGTAAMPGIGAMHHLPRPGELGSRTELPIGAGMGSSAAIVAATTVLFETLLDRPKTPEQRFDRVRFCERLKHGKAGPIDAASVVRGGLVRVGGNGPGSISSFDLPEDHDLVAGRGWYWVLHGRPVSGTGECVSAVAAAHGRDAALWDAFAVCTRALEAALLSGGSPDAAITENQRLLERIGVVPAATQALVAQIEEAGGAAKICGAGSVRGDHGGAVLVRIDDAQAMASVMARHPDLDWAPLRMSRTGAAPGPAPRAQPLPGQG |  | 33% | 109 % of wild-type | 
